For the series, the target named is T1, recombinant human ANGPTL3 (rhANGPTL3) (SEQ ID NO:1).
T1 chain: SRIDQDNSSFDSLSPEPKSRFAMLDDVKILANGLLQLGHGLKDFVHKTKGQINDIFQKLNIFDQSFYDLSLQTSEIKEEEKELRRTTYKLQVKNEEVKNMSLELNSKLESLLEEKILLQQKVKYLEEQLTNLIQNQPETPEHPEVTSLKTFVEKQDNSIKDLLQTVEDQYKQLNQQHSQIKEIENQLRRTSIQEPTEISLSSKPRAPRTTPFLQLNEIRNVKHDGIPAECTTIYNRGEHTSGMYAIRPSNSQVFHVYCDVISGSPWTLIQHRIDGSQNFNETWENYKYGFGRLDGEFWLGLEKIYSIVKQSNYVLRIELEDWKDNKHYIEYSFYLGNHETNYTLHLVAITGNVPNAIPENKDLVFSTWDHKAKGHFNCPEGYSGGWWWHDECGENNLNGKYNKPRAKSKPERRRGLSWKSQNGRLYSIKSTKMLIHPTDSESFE

B1: bovine LPL (protein)
chain: DRITGGKDFRDIESKFALRTPEDTAEDTCHLIPGVTESVANCHFNHSSKTFVVIHGWTVTGMYESWVPKLVAALYKREPDSNVIVVDWLSRAQQHYPVSAGYTKLVGQDVAKFMNWMADEFNYPLGNVHLLGYSLGAHAAGIAGSLTNKKVNRITGLDPAGPNFEYAEAPSRLSPDDADFVDVLHTFTRGSPGRSIGIQKPVGHVDIYPNGGTFQPGCNIGEALRVIAERGLGDVDQLVKCSHERSVHLFIDSLLNEENPSKAYRCNSKEAFEKGLCLSCRKNRCNNMGYEINKVRAKRSSKMYLKTRSQMPYKVFHYQVKIHFSGTESNTYTNQAFEISLYGTVAESENIPFTLPEVSTNKTYSFLLYTEVDIGELLMLKLKWISDSYFSWSNWWSSPGFDIGKIRVKAGETQKKVIFCSREKMSYLQKGKSPVIFVKCHDKSLNRKSG
On to B1, for which the “in vitro enzymatic activity of lipoprotein lipase (LPL), EnzChek Lipase substrate” value is reported as “The activity of bovine LPL is inhibited by addition of recombinant hANGPTL3 (rhANGPTL3)”.

The values above are taken from patent US20260035450.
